# Data as given in the supplement of paper PMC10126150.
# ± gives the standard deviation of the averaged measurements.
# System: ATP
# Test: switch fluorescence ratio, 500 uM ATP over buffer (Cy3 cluster intensity, sum of 5 cycles each) (fold (ratio)); higher = stronger signal-on switching upon ATP binding; sequences stand for … in TCGTCGGCAGCGTCAGATGTGTATAAGAGACAGTTTTTTTTTTTTTTTTTTTTTTTTT…TC
# Conditions: aptamer strand: ATP DNA aptamer (quencher-CACCTGGGGGAGTATTGCGGAGGAAGG + anchor), 100 nM annealed; ATP concentration: 500 uM
# Method in brief: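 Clusters with intensities outside 100-1000 RFU were excluded. The remaining Cy3-labelled switching-strand clusters on a modified Illumina MiSeq flow-cell had been annealed to 100 nM quencher-labelled ATP aptamer and imaged in selection buffer, then after 15 min with 500 uM ATP at 22 °C, for five cycles separated by NaOH stripping and re-annealing. The fluorescence ratio, averaged per switch-domain sequence, is each cluster's summed target-cycle Cy3 intensity over its summed buffer-cycle Cy3 intensity.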
# 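Also: ATP exposure 15 min at 22 °C before imaging.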
sequence,measurement,value
ACTAAGTCTG,switch fluorescence ratio,1.02 ± 0.045
TTCCTTGGGT,switch fluorescence ratio,1.01 ± 0.017
TATTGATTGG,switch fluorescence ratio,0.9977 ± 0.0062
TACTTACTCG,switch fluorescence ratio,1.241 ± 0.0038
CAATCTAAAT,switch fluorescence ratio,0.969 ± 0.027
TCCTGCGGGG,switch fluorescence ratio,1.12 ± 0.12
CGACCGGGTA,switch fluorescence ratio,1.02 ± 0.023
TTCACCGGCA,switch fluorescence ratio,1.079 ± 0.0089
TTTGTGGGGG,switch fluorescence ratio,1.01 ± 0.041
AAAGGAGGTA,switch fluorescence ratio,1 ± 0.012
TTGTATCTTT,switch fluorescence ratio,1.03 ± 0.011
GTATAATTGT,switch fluorescence ratio,0.984 ± 0.019
AATAGTACAA,switch fluorescence ratio,1.04 ± 0.0056
GGTGTGATTG,switch fluorescence ratio,0.977 ± 0.04
TTCGTTTCGA,switch fluorescence ratio,0.965 ± 0.042
GTTTTATGGG,switch fluorescence ratio,0.969 ± 0.038
ACTCATAATT,switch fluorescence ratio,1.0222 ± 0.00042
ATTAAAGGTT,switch fluorescence ratio,0.99 ± 0.022
AGGTGTGATA,switch fluorescence ratio,1.1 ± 0.051
AGGAGACGAA,switch fluorescence ratio,0.985 ± 0.031
GATTGAAAGG,switch fluorescence ratio,0.957 ± 0.0097
GTTATCGCTA,switch fluorescence ratio,1.07 ± 0.04
GGGTGTGTGC,switch fluorescence ratio,1.03 ± 0.08
AGTGGCTTTG,switch fluorescence ratio,0.986 ± 0.019
CTTACCTTGA,switch fluorescence ratio,0.997 ± 0.031
ACGTTTGTCC,switch fluorescence ratio,1.03 ± 0.022
GTTAGTTACT,switch fluorescence ratio,1.01 ± 0.057
AGTAGGTCGG,switch fluorescence ratio,0.987 ± 0.01
TGATGCTCGG,switch fluorescence ratio,0.996 ± 0.069
ACAAGGGTTC,switch fluorescence ratio,1 ± 0.015
AATGGAACGG,switch fluorescence ratio,1.02 ± 0.032
CTTGTCATCT,switch fluorescence ratio,1.005 ± 0.0061
AAATGGGTAG,switch fluorescence ratio,0.9692 ± 0.0062
ATAAAGGGTT,switch fluorescence ratio,0.9936 ± 0.009
CATGGTGTTA,switch fluorescence ratio,1.01 ± 0.025
TGGGATTATG,switch fluorescence ratio,0.976 ± 0.0098
TTAAAAAAAA,switch fluorescence ratio,1.16 ± 0.35
TGGGCCGGTT,switch fluorescence ratio,1.05 ± 0.099
ACTGGGTCGA,switch fluorescence ratio,1.04 ± 0.034
CAGCATAGAT,switch fluorescence ratio,1.08 ± 0.023
AAAACAGCCG,switch fluorescence ratio,0.957 ± 0.1
CCCAAGGGCA,switch fluorescence ratio,1.02 ± 0.051
TTTAGAACGA,switch fluorescence ratio,1.01 ± 0.025
AATGTTCAGG,switch fluorescence ratio,0.995 ± 0.021
GGACGGGGTC,switch fluorescence ratio,1.01 ± 0.013
GGGTACGTTT,switch fluorescence ratio,0.97231 ± 0.00073
AACCTTAGTC,switch fluorescence ratio,1.1 ± 0.045
GTGCTTACGA,switch fluorescence ratio,1.068 ± 0.01
TCTTTATCCC,switch fluorescence ratio,1.18 ± 0.084
ATGAGTGCCA,switch fluorescence ratio,0.9844 ± 0.0013
GGGAAGGTGT,switch fluorescence ratio,1.1 ± 0.11
TAATTCAGGT,switch fluorescence ratio,1 ± 0.011
GGTCGGGTTG,switch fluorescence ratio,0.979 ± 0.011
TAATAGTGGC,switch fluorescence ratio,1.06 ± 0.068
GAGTTAGGGG,switch fluorescence ratio,0.998 ± 0.018
CGGTCATACT,switch fluorescence ratio,1.21 ± 0.029
GGATCGTCGG,switch fluorescence ratio,0.96 ± 0.019
TCGAATGT,switch fluorescence ratio,1.01 ± 0.012
CCGGTTATGA,switch fluorescence ratio,1.04 ± 0.02
GCTATAGAGG,switch fluorescence ratio,0.9846 ± 0.0072
CGAGGGGGCT,switch fluorescence ratio,0.99 ± 0.02
AAGTAACTC,switch fluorescence ratio,1.03 ± 0.027
GTTGGATTTA,switch fluorescence ratio,1.006 ± 0.0077
CGCGATTTTA,switch fluorescence ratio,1.04 ± 0.019
TGGGTTTATT,switch fluorescence ratio,0.984 ± 0.014
AACGGGGGGT,switch fluorescence ratio,0.997 ± 0.033
TAGGGGGTGG,switch fluorescence ratio,1 ± 0.03
TTTAAAATAG,switch fluorescence ratio,1.01 ± 0.019
TGCAAACCTT,switch fluorescence ratio,2.39 ± 0.047
TTGTGTGTAG,switch fluorescence ratio,1.04 ± 0.033
AACATCTAGA,switch fluorescence ratio,0.965 ± 0.011
ATGTGCTGGT,switch fluorescence ratio,0.991 ± 0.021
GAGTAAAGTC,switch fluorescence ratio,0.934 ± 0.029
GAAGCACGCC,switch fluorescence ratio,1.45 ± 0.0069
GTGTGGGGCC,switch fluorescence ratio,0.973 ± 0.012
AGGGTATAGA,switch fluorescence ratio,0.987 ± 0.01
CTATTTTGGT,switch fluorescence ratio,0.9784 ± 0.0079
GCGTTATATT,switch fluorescence ratio,1 ± 0.018
GGGGAGACTG,switch fluorescence ratio,0.956 ± 0.028
TGAGCGTG,switch fluorescence ratio,0.9816 ± 0.0078
AGGGGTTAGG,switch fluorescence ratio,0.992 ± 0.021
ATTTTTTTGC,switch fluorescence ratio,1.03 ± 0.029
AAATACAAGG,switch fluorescence ratio,1.15 ± 0.24
ATAGGTCTAT,switch fluorescence ratio,1.04 ± 0.065
CGATGGTACG,switch fluorescence ratio,0.946 ± 0.05
CGGGGCACGC,switch fluorescence ratio,0.896 ± 0.05
AAAAGATCAT,switch fluorescence ratio,0.999 ± 0.012
CCGAGTTATA,switch fluorescence ratio,2.15 ± 0.013
GCTACGGGGG,switch fluorescence ratio,1.02 ± 0.037
TTCCCATGTT,switch fluorescence ratio,1 ± 0.012
ATGGTGAGCG,switch fluorescence ratio,0.978 ± 0.017
TTTTAAGGCA,switch fluorescence ratio,1.03 ± 0.031
GAGGGATTCC,switch fluorescence ratio,1.06 ± 0.095
ACCCGGATGG,switch fluorescence ratio,1.01 ± 0.021
AATTAGACGT,switch fluorescence ratio,0.988 ± 0.015
CGGGTGCTTT,switch fluorescence ratio,1.05 ± 0.013
GCTTTAAAAT,switch fluorescence ratio,1.004 ± 0.0088
ATTTGTCCAA,switch fluorescence ratio,0.993 ± 0.028
CGATGGGAGG,switch fluorescence ratio,1.06 ± 0.073
TACGCCGGTA,switch fluorescence ratio,0.961 ± 0.032
TAACGGGTTG,switch fluorescence ratio,1.03 ± 0.029
GACATTTTGG,switch fluorescence ratio,1.03 ± 0.042
TGGGGCAGCG,switch fluorescence ratio,1.007 ± 0.0039
GCCCACCGAT,switch fluorescence ratio,1.06 ± 0.031
CATTAGATCG,switch fluorescence ratio,0.997 ± 0.044
GGCCAATAAT,switch fluorescence ratio,0.991 ± 0.016
TAGAATGGCC,switch fluorescence ratio,1.01 ± 0.041
AGGGTCCCGC,switch fluorescence ratio,0.9929 ± 0.0024
CAAACGCCGA,switch fluorescence ratio,1.103 ± 0.0045
GATTATTTGG,switch fluorescence ratio,0.986 ± 0.011
TTGGATGGGA,switch fluorescence ratio,1 ± 0.034
GCTAAAATAG,switch fluorescence ratio,1.11 ± 0.15
GGGTGTATTT,switch fluorescence ratio,1.02 ± 0.011
TTAGGAGGGT,switch fluorescence ratio,0.965 ± 0.037
ATGTAAAAGT,switch fluorescence ratio,0.986 ± 0.043
CGGGGGCGCG,switch fluorescence ratio,1.02 ± 0.021
ATCGATGAAT,switch fluorescence ratio,0.995 ± 0.015
CTCGCCGCGG,switch fluorescence ratio,1.08 ± 0.038
CTTCGGGGCG,switch fluorescence ratio,1.01 ± 0.07
TGTTTATTTG,switch fluorescence ratio,0.965 ± 0.017
AATCGTTAAG,switch fluorescence ratio,0.97 ± 0.015
TTACGAGTGG,switch fluorescence ratio,1.02 ± 0.025
GCTTTCCGGC,switch fluorescence ratio,1.02 ± 0.078
AGTACGGGGG,switch fluorescence ratio,0.992 ± 0.021
GCTACTTAAA,switch fluorescence ratio,1.03 ± 0.025
GTAGGACGTC,switch fluorescence ratio,1.02 ± 0.011
AATTGGAAGT,switch fluorescence ratio,1.01 ± 0.04
ATACTCAGTG,switch fluorescence ratio,1.069 ± 0.0084
TCCAGATCAT,switch fluorescence ratio,0.993 ± 0.018
CTGTGAAAAA,switch fluorescence ratio,1.09 ± 0.043
AGCTCATCGC,switch fluorescence ratio,1.05 ± 0.023
GGGATGACGA,switch fluorescence ratio,0.98 ± 0.042
GTGAAAGGGC,switch fluorescence ratio,1.01 ± 0.034
TAGGGGGTGT,switch fluorescence ratio,0.991 ± 0.018
TGTTGAAATT,switch fluorescence ratio,1.03 ± 0.077
GCCGGGGGGA,switch fluorescence ratio,1.03 ± 0.086
ATGGGCTAGC,switch fluorescence ratio,1.009 ± 0.0014
ATGATTATGA,switch fluorescence ratio,1.04 ± 0.029
TAGGTCTCAG,switch fluorescence ratio,1.029 ± 0.0085
GGTACTGAGC,switch fluorescence ratio,1.03 ± 0.061
AAACTGTACT,switch fluorescence ratio,1.425 ± 0.0099
GGGAAGTATA,switch fluorescence ratio,1 ± 0.027
TTTAGTAAAC,switch fluorescence ratio,1.08 ± 0.11
TTCTGGTTTG,switch fluorescence ratio,0.975 ± 0.043
GAAGGCAGTC,switch fluorescence ratio,1.13 ± 0.04
TTAGTAAAGA,switch fluorescence ratio,1.02 ± 0.013
GAGTTCGCGT,switch fluorescence ratio,1.093 ± 0.0049
CCTGGCAGCG,switch fluorescence ratio,1.05 ± 0.03
GGGAGGATGC,switch fluorescence ratio,0.993 ± 0.059
CGATGCTCCG,switch fluorescence ratio,0.932 ± 0.024
ACGTGTTGGC,switch fluorescence ratio,1.02 ± 0.052
TAAAACTTGG,switch fluorescence ratio,0.999 ± 0.065
GATGGATGGA,switch fluorescence ratio,1.05 ± 0.026
